Measured values published in patent publication US20210108174A1 (CRISPR THERAPEUTICS, published 2021).

Molecular target: T1, biotinylated recombinant human BCMA (human, UniProt Q02223 1-54, biotinylated)
T1 construct: Bought reagent; also called biotinylated BCMA; Recombinant biotinylated human BCMA (Acro Biosystems Cat:# BC7-H82F0)
T1 sequence (looked up): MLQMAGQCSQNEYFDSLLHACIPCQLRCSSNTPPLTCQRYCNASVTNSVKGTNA
Experiment: flow cytometry, biotinylated BCMA detected with streptavidin-APC on CAR T cells

- percent of cells that bound biotinylated BCMA: 60%
B1: Anti-BCMA CAR of CTX-160 (CD28 co-stimulatory domain) (other)
chain: EVQLVESGGGLVQPGGSLKLSCAASGIDFSRYWMSWVRQAPGKGLEWIGEINPDSSTINYADSVKGRFTISRDNAKNTLYLQMNLSRAEDTALYYCASLYYDYGDAMDYWGQGTLVTVSSGGGGSGGGGSGGGGSDIQMTQSPSSLSASVGDRVTITCRASQSVDSNVAWYQQKPEKAPKSLIFSASLRFSGVPSRFSGSGSGTDFTLTISSLQPEDFATYYCQQYNSYPLTFGAGTKLEIKSAAAFVPVFLPAKPTTTPAPRPPTPAPTIASQPLSLRPEACRPAAGGAVHTRGLDFACDIYIWAPLAGTCGVLLLSLVITLYCNHRNRSKRSRLLHSDYMNMTPRRPGPTRKHYQPYAPPRDFAAYRSRVKFSRSADAPAYQQGQNQLYNELNLGRREEYDVLDKRRGRDPEMGGKPRRKNPQEGLYNELQKDKMAEAYSEIGMKGERRRGKGHDGLYQGLSTATKDTYDALHMQALPPR
notes: Chimeric antigen receptor on edited primary human T cells; also called anti-BCMA (CD28) CAR
